Data set [1] deals with 6-His-LIMK2 (recombinant, E. coli) (UniProt P53671).
Data set [2] concerns 6-His-cofilin.
The target in data set [3] is 6-His-PHLDA1 (recombinant, E. coli) (UniProt Q8WV24).
6-His-PHLDA1 (recombinant, E. coli), sequence (Q8WV24 whole entry): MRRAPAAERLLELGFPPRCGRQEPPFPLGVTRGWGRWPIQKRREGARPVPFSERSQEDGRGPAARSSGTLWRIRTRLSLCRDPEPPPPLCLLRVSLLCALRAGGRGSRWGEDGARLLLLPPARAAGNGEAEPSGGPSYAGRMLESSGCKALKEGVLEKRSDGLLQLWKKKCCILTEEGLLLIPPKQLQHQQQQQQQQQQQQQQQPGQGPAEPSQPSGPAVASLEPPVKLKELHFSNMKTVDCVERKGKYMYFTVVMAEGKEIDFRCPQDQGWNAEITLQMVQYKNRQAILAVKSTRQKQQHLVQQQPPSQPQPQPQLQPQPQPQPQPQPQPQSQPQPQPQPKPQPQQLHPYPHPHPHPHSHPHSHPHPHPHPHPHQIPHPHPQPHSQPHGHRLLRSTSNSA

6-His-LIMK2 (recombinant, E. coli), sequence (P53671 whole entry, looked up): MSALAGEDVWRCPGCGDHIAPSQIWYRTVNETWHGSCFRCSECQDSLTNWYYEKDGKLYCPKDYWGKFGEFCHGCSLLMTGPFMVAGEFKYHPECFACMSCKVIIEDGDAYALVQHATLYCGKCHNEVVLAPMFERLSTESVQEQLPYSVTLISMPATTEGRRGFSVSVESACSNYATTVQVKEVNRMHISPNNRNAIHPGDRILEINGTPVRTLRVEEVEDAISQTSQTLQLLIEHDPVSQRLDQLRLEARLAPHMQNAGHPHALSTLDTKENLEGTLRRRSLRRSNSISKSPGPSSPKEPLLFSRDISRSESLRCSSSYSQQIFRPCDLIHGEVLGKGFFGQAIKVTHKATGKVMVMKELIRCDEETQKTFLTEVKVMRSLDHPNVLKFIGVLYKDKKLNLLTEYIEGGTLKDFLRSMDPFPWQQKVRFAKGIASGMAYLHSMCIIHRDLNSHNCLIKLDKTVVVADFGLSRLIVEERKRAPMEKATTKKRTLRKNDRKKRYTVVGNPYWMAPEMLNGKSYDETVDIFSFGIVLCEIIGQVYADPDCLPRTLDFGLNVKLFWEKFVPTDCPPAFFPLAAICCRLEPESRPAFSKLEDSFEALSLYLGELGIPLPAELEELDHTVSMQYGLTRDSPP

Consider “6-His-Aurora-A (recombinant, wild type, from Sf9 insect cells)”, for which, in data set [1], the “LIMK2 kinase activity (cofilin phosphorylation) after pre-incubation with Aurora A” value is reported as “LIMK2 preincubated with Aurora A showed increased kinase activity (lane 2)”; the “in vitro kinase assay with recombinant Aurora A/TPX2 and 6-His-LIMK2 (phosphorylation of LIMK2)” value was “Aurora A directly phosphorylates LIMK2 (FIG. 5A, lane 2)”; the “in vitro phosphorylation of wild-type, S283A, T494A and T505A LIMK2 alleles by Aurora A/TPX2” value is listed as “Aurora A phosphorylates LIMK2 at all these sites (FIG. 8A)”. The “in vitro kinase assay, cofilin phosphorylation with [32P] ATP” value in data set [2] was “Aurora A does not phosphorylate cofilin (FIG. 6H, lanes 1 and 4)”. In data set [3], the “in vitro kinase assay with Aurora A/TPX2 and [γ-32P]ATP (phosphorylation of PHLDA1)” value is reported as “Aurora A directly phosphorylated PHLDA1 (FIG. 1A, lane 2)”; the “in vitro phosphorylation of wild-type, Ser78A and Ser98A PHLDA1 alleles by Aurora A/TPX2” value is given as “Aurora A was found to predominantly phosphorylate PHLDA1 at Ser98 (FIG. 2C)”.

(Values after US20130253037.)
